Reference: publication doi:10.1101/2023.05.29.542693 (bioRxiv, 2023)

What was measured:
cryo-EM structure = molecular target: the molecule itself; test: cryo-EM structure
[1] = molecular target: Escherichia coli GroEL (wild-type, tetradecamer) (E. coli, UniProt P0A6F5 1-548); test: cryo-EM structure
Escherichia coli GroEL (wild-type, tetradecamer), sequence (P0A6F5 whole entry): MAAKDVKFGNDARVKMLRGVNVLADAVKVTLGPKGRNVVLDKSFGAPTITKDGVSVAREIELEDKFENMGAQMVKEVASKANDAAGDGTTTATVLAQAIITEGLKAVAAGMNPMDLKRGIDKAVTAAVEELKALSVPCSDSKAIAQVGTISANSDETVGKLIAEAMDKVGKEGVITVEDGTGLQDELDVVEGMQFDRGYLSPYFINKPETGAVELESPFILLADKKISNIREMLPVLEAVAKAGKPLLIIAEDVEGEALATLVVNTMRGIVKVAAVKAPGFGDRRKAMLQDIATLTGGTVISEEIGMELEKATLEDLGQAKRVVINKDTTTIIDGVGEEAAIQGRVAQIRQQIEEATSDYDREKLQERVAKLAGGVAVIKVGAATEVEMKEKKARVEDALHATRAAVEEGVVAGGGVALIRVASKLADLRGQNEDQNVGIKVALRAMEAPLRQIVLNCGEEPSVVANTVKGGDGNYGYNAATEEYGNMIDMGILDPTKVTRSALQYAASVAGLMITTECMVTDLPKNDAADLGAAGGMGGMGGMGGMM

B1: Escherichia coli GroES (heptameric co-chaperonin) (natural protein)
chain: MNIRPLHDRVIVKRKEVETKSAGGIVLTGSAAAKSTRGEVLAVGNGRILENGEVKPLDVKVGDIVIFNDGYGVKSEKIDNEEVLIMSESDILAIVEA
- binding result (cryo-EM structure): binds
- binding result [1]: binds
